± gives the standard deviation of the averaged measurements.
Tested on: Saccharomyces cerevisiae
Experiment: protein stability index of tFT-peptide fusion (C-terminal peptide) (PSI (0-1 scale)); higher = more stable (slower turnover)
Settings: temperature: 30 C
Procedure: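 MPS profiling in S. cerevisiae of the yeast C-terminome library: the last 12 aa of each annotated ORF are fused to the C-terminus of a sfGFP-mCherry timer, after a GGGS linker. Cells are FACS-sorted into 8 mCherry/sfGFP bins and deep-sequenced. PSI runs from 0 (unstable) to 1 (stable); wild type and das1Δ backgrounds, two technical replicates each.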

[1] = genetic background: das1 deletion

Sequence: EPYNIKYSNSKK [MSD1 C-terminal 12 aa]
- protein stability index [1]: 0.7 ± 0.03
- protein stability index (genetic background: wild type): 0.66695 ± 2.1e-06

Sequence: EQLADYLIGVQY [PFY1 C-terminal 12 aa]
- protein stability index [1]: 0.686 ± 0.014
- protein stability index (genetic background: wild type): 0.6754 ± 0.0032

Sequence: EQQNFEKCNEYI [NPL6 C-terminal 12 aa]
- protein stability index [1]: 0.691 ± 0.01
- protein stability index (genetic background: wild type): 0.655 ± 0.007

Sequence: EQVRFKNINYKS [AZF1 C-terminal 12 aa]
- protein stability index [1]: 0.654 ± 0.0011
- protein stability index (genetic background: wild type): 0.673 ± 0.014

Sequence: ERAYMYYLRNGK [NAM9 C-terminal 12 aa]
- protein stability index [1]: 0.656 ± 0.023
- protein stability index (genetic background: wild type): 0.625 ± 0.021

Sequence: ERCSLQNPFYSI [YNR066C C-terminal 12 aa]
- protein stability index [1]: 0.7315 ± 0.0067
- protein stability index (genetic background: wild type): 0.696 ± 0.0016

Sequence: ERTSLLSGETQT [YPQ2 C-terminal 12 aa]
- protein stability index [1]: 0.67739 ± 0.00033
- protein stability index (genetic background: wild type): 0.684 ± 0.014

Sequence: ESEYREQQQNPQ [SHQ1 C-terminal 12 aa]
- protein stability index [1]: 0.688 ± 0.017
- protein stability index (genetic background: wild type): 0.686 ± 0.085

Sequence: ESFVECFESFIE [PBI1 C-terminal 12 aa]
- protein stability index [1]: 0.714 ± 0.03
- protein stability index (genetic background: wild type): 0.682 ± 0.033

Sequence: ESGPSIVHHKCF [ACT1 C-terminal 12 aa]
- protein stability index [1]: 0.6875 ± 0.003
- protein stability index (genetic background: wild type): 0.6963 ± 0.0026

Sequence: ESTHKEAMGEKN [MNN5 C-terminal 12 aa]
- protein stability index [1]: 0.648 ± 0.014
- protein stability index (genetic background: wild type): 0.675 ± 0.016

Sequence: EVEKIVKKVLKD [DBP5 C-terminal 12 aa]
- protein stability index [1]: 0.7225 ± 0.0038
- protein stability index (genetic background: wild type): 0.6553 ± 0.0058

Sequence: EWTKLYAKKKPE [UBC13 C-terminal 12 aa]
- protein stability index [1]: 0.6853 ± 0.0049
- protein stability index (genetic background: wild type): 0.711 ± 0.01

Sequence: EYEYEDDGLFER [GCD1 C-terminal 12 aa]
- protein stability index [1]: 0.695 ± 0.017
- protein stability index (genetic background: wild type): 0.692 ± 0.029

Sequence: FEGKPLYQMLKI [YAL047W-A C-terminal 12 aa]
- protein stability index [1]: 0.638 ± 0.031
- protein stability index (genetic background: wild type): 0.551 ± 0.011

Sequence: FFFLLTSLLSPF [LCL1 C-terminal 12 aa]
- protein stability index [1]: 0.637 ± 0.029
- protein stability index (genetic background: wild type): 0.592 ± 0.0065

Sequence: FFKQAEQEQADV [PRP11 C-terminal 12 aa]
- protein stability index [1]: 0.7024 ± 0.001
- protein stability index (genetic background: wild type): 0.698 ± 0.0072

Sequence: FFRYFTFSSSYW [YDR464C-A C-terminal 12 aa]
- protein stability index [1]: 0.7002 ± 0.004
- protein stability index (genetic background: wild type): 0.661 ± 0.022

Sequence: FFSKKRPNIDSK [YOL037C C-terminal 12 aa]
- protein stability index [1]: 0.696 ± 0.011
- protein stability index (genetic background: wild type): 0.684 ± 0.058

Sequence: FGTWEIVIRLLS [RIM2 C-terminal 12 aa]
- protein stability index [1]: 0.382 ± 0.0062
- protein stability index (genetic background: wild type): 0.123 ± 0.018

Sequence: FILKAKLEWIKW [YOL075C C-terminal 12 aa]
- protein stability index [1]: 0.515 ± 0.018
- protein stability index (genetic background: wild type): 0.578 ± 0.11

Sequence: FKQSEITLYRTR [PEP8 C-terminal 12 aa]
- protein stability index [1]: 0.693 ± 0.032
- protein stability index (genetic background: wild type): 0.722 ± 0.11

Sequence: FKSGQNMLKDEL [SCJ1 C-terminal 12 aa]
- protein stability index [1]: 0.681 ± 0.022
- protein stability index (genetic background: wild type): 0.648 ± 0.0073

Sequence: FLFHCVHLLLSG [YDR535C C-terminal 12 aa]
- protein stability index [1]: 0.511 ± 0.011
- protein stability index (genetic background: wild type): 0.4909 ± 0.003

Sequence: FLRNFKDNRFLQ [YOR121C C-terminal 12 aa]
- protein stability index [1]: 0.726 ± 0.025
- protein stability index (genetic background: wild type): 0.6968 ± 0.004

Sequence: FPLLMSEIEDFR [YNL067W-A C-terminal 12 aa]
- protein stability index [1]: 0.718 ± 0.019
- protein stability index (genetic background: wild type): 0.695 ± 0.033

Sequence: FPRNLAKSVTVE [GFA1 C-terminal 12 aa]
- protein stability index [1]: 0.599 ± 0.0094
- protein stability index (genetic background: wild type): 0.593 ± 0.011

Sequence: FQVVSKKKGRKH [SMY2 C-terminal 12 aa]
- protein stability index [1]: 0.691 ± 0.017
- protein stability index (genetic background: wild type): 0.72 ± 0.033

Sequence: FSRASCITVWLV [YPR160C-A C-terminal 12 aa]
- protein stability index [1]: 0.6275 ± 0.0035
- protein stability index (genetic background: wild type): 0.228 ± 0.027

Sequence: FSSEFSSDPTVN [YJL206C C-terminal 12 aa]
- protein stability index [1]: 0.69642 ± 0.00024
- protein stability index (genetic background: wild type): 0.724 ± 0.034

Sequence: FSVCCKDATEVS [YHR070C-A C-terminal 12 aa]
- protein stability index [1]: 0.6764 ± 0.0025
- protein stability index (genetic background: wild type): 0.682 ± 0.031

Sequence: FTLVDYDKKFHK [ADH7 C-terminal 12 aa]
- protein stability index [1]: 0.702 ± 0.043
- protein stability index (genetic background: wild type): 0.78 ± 0.087

Sequence: FTNQKLAKLEVR [YMR141C C-terminal 12 aa]
- protein stability index [1]: 0.57877 ± 0.00025
- protein stability index (genetic background: wild type): 0.591 ± 0.0041

Sequence: FVLIVLGLLTYL [GET2 C-terminal 12 aa]
- protein stability index [1]: 0.364 ± 0.0094
- protein stability index (genetic background: wild type): 0.38 ± 0.019

Sequence: FVSHSRFFNRGT [VPS53 C-terminal 12 aa]
- protein stability index [1]: 0.684 ± 0.03
- protein stability index (genetic background: wild type): 0.6958 ± 0.0033

Sequence: FYIDKFQVREVK [SUC2 C-terminal 12 aa]
- protein stability index [1]: 0.7059 ± 0.0061
- protein stability index (genetic background: wild type): 0.683 ± 0.038

Sequence: GAAIAAGVAFLF [YCL048W-A C-terminal 12 aa]
- protein stability index [1]: 0.716 ± 0.011
- protein stability index (genetic background: wild type): 0.538 ± 0.021

Sequence: GAGIMALIGKWA [ZRT1 C-terminal 12 aa]
- protein stability index [1]: 0.687 ± 0.017
- protein stability index (genetic background: wild type): 0.661 ± 0.022

Sequence: GALLAGAAALLL [CCW12 C-terminal 12 aa]
- protein stability index [1]: 0.7007 ± 0.0036
- protein stability index (genetic background: wild type): 0.698 ± 0.019

Sequence: GAQIISLDEDVF [GIP1 C-terminal 12 aa]
- protein stability index [1]: 0.715 ± 0.045
- protein stability index (genetic background: wild type): 0.716 ± 0.037

Sequence: GEGESIDDKLTD [STB1 C-terminal 12 aa]
- protein stability index [1]: 0.6976 ± 0.00096
- protein stability index (genetic background: wild type): 0.733 ± 0.054

Sequence: GESISMLFEHGW [PRS5 C-terminal 12 aa]
- protein stability index [1]: 0.719 ± 0.012
- protein stability index (genetic background: wild type): 0.7458 ± 0.0051

Sequence: GESVDKVTKNEQ [YPR114W C-terminal 12 aa]
- protein stability index [1]: 0.691 ± 0.011
- protein stability index (genetic background: wild type): 0.662 ± 0.014

Sequence: GETDSKIKYKYR [SND2 C-terminal 12 aa]
- protein stability index [1]: 0.712 ± 0.06
- protein stability index (genetic background: wild type): 0.573 ± 0.026

Sequence: GFASLIKDFKKK [NET1 C-terminal 12 aa]
- protein stability index [1]: 0.672 ± 0.018
- protein stability index (genetic background: wild type): 0.685 ± 0.043

Sequence: GGGYLTSLKLFI [YOR041C C-terminal 12 aa]
- protein stability index [1]: 0.68787 ± 0.00068
- protein stability index (genetic background: wild type): 0.681 ± 0.031

Sequence: GGNLPQGYFYTQ [GTS1 C-terminal 12 aa]
- protein stability index [1]: 0.707 ± 0.0075
- protein stability index (genetic background: wild type): 0.69615 ± 0.00011

Sequence: GIRRIVHEPLGI [MTE1 C-terminal 12 aa]
- protein stability index [1]: 0.733 ± 0.016
- protein stability index (genetic background: wild type): 0.729 ± 0.045

Sequence: GIVRHLIDSVKL [ACS1 C-terminal 12 aa]
- protein stability index [1]: 0.695 ± 0.012
- protein stability index (genetic background: wild type): 0.6884 ± 0.0041

Sequence: GKGAIDGFFKRK [RNH202 C-terminal 12 aa]
- protein stability index [1]: 0.694 ± 0.03
- protein stability index (genetic background: wild type): 0.6575 ± 0.004

Sequence: GLEFHDVEDRIA [PEX18 C-terminal 12 aa]
- protein stability index [1]: 0.7047 ± 0.0036
- protein stability index (genetic background: wild type): 0.702 ± 0.013

Sequence: GLKGLFPTSYCK [BZZ1 C-terminal 12 aa]
- protein stability index [1]: 0.702 ± 0.039
- protein stability index (genetic background: wild type): 0.732 ± 0.02

Sequence: GLQKKNIKIHGF [SUI1 C-terminal 12 aa]
- protein stability index [1]: 0.699 ± 0.024
- protein stability index (genetic background: wild type): 0.684 ± 0.074

Sequence: GQGTTLGGPFFP [ALB1 C-terminal 12 aa]
- protein stability index [1]: 0.724 ± 0.019
- protein stability index (genetic background: wild type): 0.7215 ± 0.0052

Sequence: GRENGDVNIWAV [MDV1 C-terminal 12 aa]
- protein stability index [1]: 0.702 ± 0.013
- protein stability index (genetic background: wild type): 0.715 ± 0.0099

Sequence: GRYAQIHEKHIE [ASN1 C-terminal 12 aa]
- protein stability index [1]: 0.7022 ± 0.0044
- protein stability index (genetic background: wild type): 0.691 ± 0.089

Sequence: GSAAVAGALLLL [YNL190W C-terminal 12 aa]
- protein stability index [1]: 0.689 ± 0.02
- protein stability index (genetic background: wild type): 0.664 ± 0.023

Sequence: GSSLITEGVYVI [NSE1 C-terminal 12 aa]
- protein stability index [1]: 0.686 ± 0.021
- protein stability index (genetic background: wild type): 0.683 ± 0.028

Sequence: GSVPANWNWSSF [PIB2 C-terminal 12 aa]
- protein stability index [1]: 0.739 ± 0.03
- protein stability index (genetic background: wild type): 0.699 ± 0.048

Sequence: GTVCYGMIEIFF [VTC5 C-terminal 12 aa]
- protein stability index [1]: 0.596 ± 0.009
- protein stability index (genetic background: wild type): 0.616 ± 0.013

Sequence: GVITPVYFPLRW [YDR215C C-terminal 12 aa]
- protein stability index [1]: 0.725 ± 0.008
- protein stability index (genetic background: wild type): 0.715 ± 0.017

Source: the supplement of paper PMC10724198
